In patent US10155792B2, “Albumin binding polypeptide” (priority 2012, dated 2018):
Where two headings read alike, the source gives them in different places. Where no end group is shown, it is not given here.

Experiments:
clostripain [1] = test system: T1, clostripain; assay: Clostripain cleavage, SDS-PAGE analysis; format: in vitro ADME, Clostridium histolyticum; conditions: Clostridium histolyticum, clostripain (isolated protease), pH 7.6, 5 U clostripain/mg, 25° C.; for metabolised at 22 h: read-out: cleaved after 22 h
T1 construct: is a two-chain proteinase that can be isolated from Clostridium histolyticum; purchased Worthington LS001641
Protocol: (§1) Enzymatic digestion of PEP07843 and the three new variants was performed using clostripain from Worthington (No. LS001641) in 25 mM NaPi buffer pH 7.6, 150 mM NaCl, 1 mM CaAc, 2.5 mM DTT. Clostripain was dissolved freshly before initiation of the experiment.
(§2) In the following experiment, the clostripain amount was increased to 5 U/mg ABD variant, and the samples were incubated for 0, 1, 2, 4, 6, 8 and 22 h at 25° C. in a thermomixer with mild shaking at 600 rpm.
(§3) Reactions were stopped by addition of 4×SDS sample buffer followed by incubation for 15 min at 70° C. (for SDS PAGE analysis) or by addition of trifluoroacetic acid (TFA) to a final concentration of 0.3%, which lowers the pH to approximately 2, and freezing at −80° C. (for LC/MS analysis).
(§4) Controls were reactions without clostripain and omitting DTT which […] clostripain activity.
(§5) Analysis of samples incubated with clostripain for up to 22 h was performed by SDS-PAGE using NuPAGE 4-12% gels from Invitrogen (see FIG. 3). In FIG. 3, lane S indicates sharp molecular weight marker standard (molecular weights 3.5, 10, 15, 20, 30, 40, 50, 60, 80, 110 and 160 kDa), lane B indicates a blank sample with clostripain but no ABD variant, and lanes 0-22 indicate ABD variant samples taken at the indicated incubation times in hours.

clostripain [2] = target: T2, clostripain (Hathewaya histolytica, UniProt P09870); assay: Clostripain cleavage, SDS-PAGE analysis; format: in vitro ADME, Clostridium histolyticum; conditions: 5 U clostripain/mg
T2 construct: is a two-chain proteinase that can be isolated from Clostridium histolyticum; purchased Worthington LS001641
T2 sequence (P09870 191-526): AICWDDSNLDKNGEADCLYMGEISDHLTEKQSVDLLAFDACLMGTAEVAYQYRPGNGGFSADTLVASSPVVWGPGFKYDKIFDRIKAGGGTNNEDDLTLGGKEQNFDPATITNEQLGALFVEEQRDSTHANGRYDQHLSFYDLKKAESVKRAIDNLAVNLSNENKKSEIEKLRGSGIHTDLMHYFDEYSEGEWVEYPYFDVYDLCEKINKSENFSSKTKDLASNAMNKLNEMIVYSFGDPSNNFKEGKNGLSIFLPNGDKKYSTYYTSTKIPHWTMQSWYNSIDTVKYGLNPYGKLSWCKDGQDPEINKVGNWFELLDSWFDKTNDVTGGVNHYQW
T2 sequence (P09870 51-181): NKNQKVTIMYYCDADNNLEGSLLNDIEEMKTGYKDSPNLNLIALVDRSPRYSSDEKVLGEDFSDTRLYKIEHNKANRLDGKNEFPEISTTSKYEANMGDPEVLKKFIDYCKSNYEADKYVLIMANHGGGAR
Protocol: as §1, §2, §3, §4, §5

clostripain [3] = test system: T1, clostripain; assay: Clostripain cleavage, LC/MS analysis; format: in vitro ADME, Clostridium histolyticum; conditions: Clostridium histolyticum, clostripain (isolated protease), read-out: remaining % ABD variant; for remaining at 0.25 h: 15 min; for remaining at 0.5 h: 30 min; for remaining at 20 h: 1200 min
Protocol: as §1
(§6) In the first experiment, 0.2 U clostripain/mg ABD variant was incubated for up to 20 h at 25° C., but only a low level of cleavage was detected by SDS-PAGE and LC/MS analysis.
as §2, §3
(§7) LC/MS analyses were performed using an Agilent 1100 LC/MSD system, equipped with API-ESI and a single quadruple mass analyzer. 10 μl of each cleavage mixture was injected on a Zorbax 300SB-C8 Narrow-Bore column (2.1×150 mm, 3.5 μm, Agilent Technologies) at a flow-rate of 0.5 ml/min. Elution was performed using a linear gradient of 10-70% solution B for 15 min at 0.5 ml/min. The separation was performed at 30° C. The ion signal and the absorbance at 280 and 220 nm were monitored.
(§8) FIGS. 4 and 5 show the LC/MS analysis of ABD variant samples incubated for up to 20 h with 0.2 U and up to 22 h with 5 U respectively of clostripain per mg ABD variant. The main peak was integrated, and the area transformed to % of remaining intact ABD variant at t=0.
(§9) The main peak was integrated and the area transformed to % of remaining intact ABD at t=0. The LC/MS analysis described above was used for analysis.

clostripain [4] = target: T2, clostripain; assay: Clostripain cleavage, LC/MS analysis; format: in vitro ADME, Clostridium histolyticum
Protocol: as §1, §6, §2, §3, §7, §8, §9

[5] = target: human serum albumin (HSA) (Homo sapiens, UniProt P02768); assay: biochemical
human serum albumin (HSA), sequence (P02768 25-609): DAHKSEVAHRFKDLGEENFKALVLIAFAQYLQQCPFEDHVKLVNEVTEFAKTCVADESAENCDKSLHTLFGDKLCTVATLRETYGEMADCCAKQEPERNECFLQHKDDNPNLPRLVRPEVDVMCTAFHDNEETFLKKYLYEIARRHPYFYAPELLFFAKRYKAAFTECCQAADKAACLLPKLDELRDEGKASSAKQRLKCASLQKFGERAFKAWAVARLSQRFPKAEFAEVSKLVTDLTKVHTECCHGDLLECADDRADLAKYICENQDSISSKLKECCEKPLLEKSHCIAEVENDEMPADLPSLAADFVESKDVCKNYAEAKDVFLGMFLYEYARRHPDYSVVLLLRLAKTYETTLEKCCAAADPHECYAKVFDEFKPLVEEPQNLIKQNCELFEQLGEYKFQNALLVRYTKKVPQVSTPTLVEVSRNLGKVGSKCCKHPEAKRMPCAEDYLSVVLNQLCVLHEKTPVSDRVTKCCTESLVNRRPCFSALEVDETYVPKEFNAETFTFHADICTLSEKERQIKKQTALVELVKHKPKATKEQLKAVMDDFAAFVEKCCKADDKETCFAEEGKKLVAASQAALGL
Protocol: Biosensor analysis on a Biacore2000 instrument (GE Healthcare) was performed with HSA (Albucult®, Novozymes), CSA (purified in-house from cynomolgus serum), RSA (Sigma-Aldrich, Cat. No. A6272) and MSA (Sigma-Aldrich, Cat. No. A3559) immobilized by amine coupling onto the carboxylated dextran layer of the surfaces of CM-5 chips (research grade; GE Healthcare) according to the manufacturer's recommendations.
ABD variants were used as analytes and were injected in duplicates over the chip at three analyte concentrations (2.5, 10 and 40 nM). The association phase was 5 min followed by a long dissociation phase (60 min) to account at least partially for the slow off-rate of the ABD variants. […] Therefore, all KD's are given as relative KD values only.
The results were analyzed with BiaEvaluation software (GE Healthcare). Curves of the blank surface and buffer injection were subtracted from the curves of the ligand surfaces.
The Biacore 2000 instrument has a technical limitation which hinders measurements of very high affinity. […] After subtraction of reference surface and buffer injection, curves were fitted to a 1:1 (Langmuir) binding model using BIAevaluation software with correction for mass transfer and with RUmax set as a local parameter.

[6] = target: T3, cynomolgus serum albumin (CSA) (Macaca fascicularis, UniProt A2V9Z4); assay: Biacore analysis of binding to CSA; conditions: CSA immobilized, Biacore2000; relative KD only
T3 construct: CSA (purified in-house from cynomolgus serum); from tissue; host or cells: cynomolgus serum
T3 sequence (A2V9Z4 25-608): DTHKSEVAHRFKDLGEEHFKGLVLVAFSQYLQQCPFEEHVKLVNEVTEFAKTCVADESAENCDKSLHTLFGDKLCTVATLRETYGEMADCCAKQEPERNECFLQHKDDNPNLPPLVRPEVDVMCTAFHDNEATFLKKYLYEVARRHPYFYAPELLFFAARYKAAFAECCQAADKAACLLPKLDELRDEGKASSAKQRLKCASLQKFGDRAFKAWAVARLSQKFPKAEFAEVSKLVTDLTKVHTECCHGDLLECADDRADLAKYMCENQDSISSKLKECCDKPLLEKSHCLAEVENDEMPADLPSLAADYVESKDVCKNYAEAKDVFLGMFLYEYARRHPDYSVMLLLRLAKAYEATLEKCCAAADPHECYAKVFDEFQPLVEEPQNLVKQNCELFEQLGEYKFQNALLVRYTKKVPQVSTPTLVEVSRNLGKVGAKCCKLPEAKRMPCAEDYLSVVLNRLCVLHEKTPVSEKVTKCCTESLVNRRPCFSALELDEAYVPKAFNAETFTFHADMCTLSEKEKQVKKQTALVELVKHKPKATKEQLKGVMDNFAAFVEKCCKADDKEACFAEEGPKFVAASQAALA

[7] = Circular dichroism analysis, variable temperature measurement; format: physicochemical
Protocol: Secondary structure of ABD variants was analyzed by circular dichroism (CD) spectroscopy using a scan from 195-250 nm before and after the variable temperature measurement (see below). Purified albumin binding polypeptide variants were diluted in 1×PBS, to final concentration of 0.5 mg/ml. Circular dichroism (CD) analysis was performed on a Jasco J-810 spectropolarimeter in a cell with an optical path-length of 1 mm. Alpha helical proteins show typical minima at 208 and 222 nm.
Variable temperature measurement was used to determine the melting temperature, Tm. In these measurements, the absorbance was measured at 221 nm from 20° C. to 90° C., with a temperature slope of 5° C./min.
The melting temperatures of the ABD variants were calculated by determining the midpoint of the transtition in the CD vs. temperature plot.
The CD spectra before and after heat treatment were compared in order to detect potential heat denaturation of the proteins. […] FIGS. 2A and 2B show the CD spectra of the new ABD variants and of PEP07843 (SEQ ID NO:27) for comparison.

[8] = pH 7.6, 0.2 U clostripain/mg, 120 min
[9] = pH 7.6, 5 U clostripain/mg, 2 h

## GSSLAEAKEAANAELDSYGVSDFYKNLIDKAKTVEGVEALKDAILAALP [PEP12379]
Clostripain [1]
  metabolised at 22 h: ~90%
Clostripain [2]
  resistance to clostripain cleavage, comparison: more resistant to clostripain cleavage as compared to PEP07843
Clostripain [2]; 25° C.
  incubation time at which some cleavage was seen: 4 to 8 h
  cleaved after 22 h: ~90%
Clostripain [3]; pH 7.6, 0.2 U clostripain/mg
  remaining at 2 min: 100%
  remaining at 5 min: 101%
  remaining at 0.25 h: 101%
  remaining at 0.5 h: 99%
  remaining at 20 h: 96%
Clostripain [3]; [8]
  remaining at 2 h: 99%
Clostripain [3]; pH 7.6, 5 U clostripain/mg
  remaining at 1 h: 92%
  remaining at 4 h: 71%
  remaining at 6 h: 58%
  remaining at 8 h: 47%
  remaining at 22 h: 4%
Clostripain [3]; [9]
  remaining at 2 h: 85%
Clostripain [4]; 0.2 U clostripain/mg, 0 min
  remaining % ABD variant: 100%
Clostripain [4]; 5 U clostripain/mg, 0 h
  remaining % ABD variant: 100%

## GSSLAEAKEAANAELDSYGVSDFYKKLIDKAKTVEGVEALKDAILAALP [PEP12380]
[5]
  Kd: 7.5 pM
[6]
  Kd: 0.011 nM
[7]
  thermal stability, comparison of variants: highest thermal stability of the three variants
Clostripain [1]
  metabolised at 22 h: ~50%
Clostripain [2]
  resistance to clostripain cleavage, comparison: highest level of resistance to cleavage
Clostripain [2]; 25° C.
  incubation time at which some cleavage was seen: 6 to 8 h
  cleaved after 22 h: ~50%
Clostripain [3]; pH 7.6, 0.2 U clostripain/mg
  remaining at 2 min: 100%
  remaining at 5 min: 101%
  remaining at 0.25 h: 101%
  remaining at 0.5 h: 101%
  remaining at 20 h: 100%
Clostripain [3]; [8]
  remaining at 2 h: 100%
Clostripain [3]; pH 7.6, 5 U clostripain/mg
  remaining at 1 h: 96%
  remaining at 4 h: 84%
  remaining at 6 h: 77%
  remaining at 8 h: 69%
  remaining at 22 h: 30%
Clostripain [3]; [9]
  remaining at 2 h: 93%
Clostripain [4]; 0.2 U clostripain/mg, 0 min
  remaining % ABD variant: 100%
Clostripain [4]; 5 U clostripain/mg, 0 h
  remaining % ABD variant: 100%
Clostripain [4]; as compared to PEP12379, PEP12381 and PEP07843
  protease stability, comparison: superior properties with respect to protease stability
Clostripain [4]; both low and high clostripain concentrations
  increase of degradation products over time, comparison: lowest increase of degradation products over time

## GSSLAEAKEAANAELDSYGVSDFYKSLIDKAKTVEGVEALKDAILAALP [PEP12381]
Clostripain [1]
  metabolised at 22 h: ~100%
Clostripain [2]
  resistance to clostripain cleavage, comparison: more resistant to clostripain cleavage as compared to PEP07843
Clostripain [2]; 25° C.
  incubation time at which some cleavage was seen: 4 to 8 h
  cleaved after 22 h: ~100%
Clostripain [3]; pH 7.6, 0.2 U clostripain/mg
  remaining at 2 min: 101%
  remaining at 5 min: 100%
  remaining at 0.25 h: 100%
  remaining at 0.5 h: 100%
  remaining at 20 h: 97%
Clostripain [3]; [8]
  remaining at 2 h: 99%
Clostripain [3]; pH 7.6, 5 U clostripain/mg
  remaining at 1 h: 91%
  remaining at 4 h: 60%
  remaining at 6 h: 44%
  remaining at 8 h: 31%
  remaining at 22 h: 0%
Clostripain [3]; [9]
  remaining at 2 h: 79%
Clostripain [4]; 0.2 U clostripain/mg, 0 min
  remaining % ABD variant: 100%
Clostripain [4]; 5 U clostripain/mg, 0 h
  remaining % ABD variant: 100%

## GSSLAEAKEAANAELDSYGVSDFYKRLIDKAKTVEGVEALKDAILAALP [PEP07843, reference compound]
[5]
  Kd: 6.7 pM
[6]
  Kd: 0.0098 nM
Clostripain [1]; 4-22 h, read-out: cleaved after 4-22 h
  metabolised: 100%
Clostripain [1]; 2 h, read-out: cleaved after 2 h
  metabolised at 2 h: ~75%
Clostripain [2]; 25° C., 4-22 h
  cleaved after 4-22 h: 100%
Clostripain [2]; 25° C., 2 h
  cleaved after 2 h: ~75%
Clostripain [3]; pH 7.6, 0.2 U clostripain/mg
  remaining at 2 min: 100%
  remaining at 5 min: 101%
  remaining at 0.25 h: 100%
  remaining at 0.5 h: 100%
  remaining at 20 h: 54%
Clostripain [3]; pH 7.6, 5 U clostripain/mg
  remaining at 1 h: 46%
  remaining at 4 h: 0%
  remaining at 6 h: 0%
  remaining at 8 h: 0%
  remaining at 22 h: 0%
Clostripain [4]; 0.2 U clostripain/mg, 0 min
  remaining % ABD variant: 100%
Clostripain [4]; 0.2 U clostripain/mg, 120 min
  remaining % ABD variant: 94%
Clostripain [4]; 5 U clostripain/mg, 0 h
  remaining % ABD variant: 100%
Clostripain [4]; 5 U clostripain/mg, 2 h
  remaining % ABD variant: 15%
